Numbering of substitutions follows the chain as printed. Numbers in names are those of the source.
T1: Human CD112R (PVRIG) (human, UniProt Q6DKI7 41-171, limits assumed)
T1 sequence (looked up): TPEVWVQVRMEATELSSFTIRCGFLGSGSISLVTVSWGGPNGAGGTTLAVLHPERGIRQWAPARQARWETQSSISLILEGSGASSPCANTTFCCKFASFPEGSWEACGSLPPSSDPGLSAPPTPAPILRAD

T2: Human CD112R expressed on cells (human, UniProt Q6DKI7 1-326)
T2 construct: whole, on cells; also called HuCD112R; hCD112R
T2 sequence (looked up): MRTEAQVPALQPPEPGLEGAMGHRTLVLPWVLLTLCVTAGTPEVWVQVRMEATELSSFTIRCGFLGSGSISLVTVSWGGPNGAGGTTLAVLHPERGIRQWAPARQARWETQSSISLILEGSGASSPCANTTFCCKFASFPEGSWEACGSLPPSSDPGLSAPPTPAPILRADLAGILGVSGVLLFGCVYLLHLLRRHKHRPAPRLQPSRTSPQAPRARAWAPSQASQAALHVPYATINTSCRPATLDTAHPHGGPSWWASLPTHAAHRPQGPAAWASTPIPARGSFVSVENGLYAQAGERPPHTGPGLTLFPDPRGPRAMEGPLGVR

B1: chimeric clone-13(N31S)-hIgG1 (VH0K0) (antibody, V domains shown)
VH: QVQLQQPGAELVKPGTSVKLSCKASGYNFTSYWINWVKLRPGQGLEWIGDIYPGSYIPNYNEKFKNKATLTVDTSSSTAYMQLTSLASEDSALYYCAGGYFDVWGAGTTVTVSS
VL: DIVMTQSPSSLSVSAGEKVTMSCKSSQSLLSSGNQKNYLAWYQQKPGQPPKLLIYGASTRESGVPDRFTGSGSGTDFTLTISSVQAEDLAVYYCQNDHSYPYTFGGGTKLEIK
notes: Chimeric, human IgG1; Light chain with N31S (deamidation removal), also denoted N27dS by Kabat numbering; also called clone N31S; VH0Vk0
B2: Clone-13-hIgG1 (antibody, V domains shown)
VH: B1 VH
VL: B1 VL with S31N
notes: Chimeric antibody with human IgG1 constant region; also called chimeric clone (clone 13)
B3: H11K1 (full humanized antibody) (antibody, V domains shown)
VH: QVQLVQSGAEVKKPGSSVKVSCKASGYTFTSYWINWVRQAPGQGLEWIGDIYPGSYIPNYNEKFKNRATLTVDTSASTAYMELSSLRSEDTAVYYCAGGYFDVWGQGTTVTVSS
VL: B1 VL with S9D, A15L, K18R, V19A, M21I, S22N, V84L, L89V, G106Q
notes: Humanized full antibody, human IgG1; also called VH11K1
B4: VH10K2 (full humanized antibody) (antibody, V domains shown)
VH: B3 VH with R87A, V93L
VL: B1 VL with S9D, S12A, A15L, K18R, V19A, M21I, S22N, V84L, L89V, G106Q
notes: Humanized full antibody, human IgG1
B5: VH10K3 (full humanized antibody) (antibody, V domains shown)
VH: B3 VH with R87A, V93L
VL: DIVMTQSPDSLAVSLGERATINCKSSQSLLSSGNQKNYLAWYQQKPGQPPKLLIYGASTRESGVPDRFSGSGSGTDFTLTISSLQAEDVAVYYCQNDHSYPYTFGQGTKLEIK
notes: as for B4
B6: H11K2 (full humanized antibody) (antibody, V domains shown)
VH: B3 VH
VL: B5 VL with S69T
notes: Humanized full antibody, human IgG1; also called VH11K2
B7: H11K3 (full humanized antibody) (antibody, V domains shown)
VH: B3 VH
VL: B5 VL
notes: Humanized full antibody comprising hIgG1 Fc; also called VH11K3
B8: Clone 15 (antibody, V domains shown)
VH: B1 VH with Y52F, I57S, E62K, N66R, T84S
VL: B1 VL with S31N, N34S, S83F

Legend:
[1] = target: Cynomolgus monkey (Macaca fascicularis) CD112R expressed on cells (cynomolgus monkey (Macaca fascicularis)); experiment: flow cytometry on 293T cells expressing cynomolgus CD112R; 99-0.05 nM, three-fold dilutions
Human CD112R (PVRIG) [2] = target: T1, Human CD112R (PVRIG); experiment: affinity of glycosylation-motif variants (Table 2; method not named there)
[3] = target: T2, Human CD112R expressed on cells; experiment: flow cytometry on 293T cells expressing human CD112R; 99-0.05 nM, three-fold dilutions
Method: (§1) The humanized mAbs were tested for binding of endogenous and overexpressed human and cynomolgus CD112R.

[4] = target: Cynomolgus monkey (Macaca fascicularis) CD112R expressed on cells (cynomolgus monkey (Macaca fascicularis)); experiment: flow cytometry on 293T cells; EC50 on cynomolgus CD112R against EC50 on human CD112R
Human CD112R (PVRIG) [5] = target: T1, Human CD112R (PVRIG); experiment: SPR (Biacore); human CD112R as ligand, antibody as analyte
Human CD112R (PVRIG) [6] = target: T1, Human CD112R (PVRIG); experiment: SPR (Biacore); purified full antibody
Human CD112R (PVRIG) [7] = target: T1, Human CD112R (PVRIG); experiment: SPR (Biacore), against the reference Ab
[8] = target: T2, Human CD112R expressed on cells; experiment: FACS, chimeric mAb 99-0.4 nM in three-fold dilutions on HEK 293T cells overexpressing CD112R, anti-human-APC 1:200
Method: For detection, anti-human-APC antibody (Ab) was used at 1:200 dilution, and cell binding was analyzed by FACS. FIG. 3C—8866 cells ([…]) overexpressing human Nectin-2 were incubated with 10 μg/ml of CD112R-Fc in the presence of isotype control Ab, or with the indicated clones at 4 μg/ml. Bound CD112R-Fc was detected by anti-mouse-Dy-647 1:250 dilution and analyzed by FACS. The blocking of CD112R binding exceeded 95% by all the variants.
Binding was analyzed by FACS and used for calculation of EC-50 values. […] The N31S variant, engineered to remove an N-Linked glycosylation motif at the CDR1 of the heavy chain, had improved (sub-nM) binding to human CD112R in this cell-based assay.

Human CD112R (PVRIG) [9] = target: T1, Human CD112R (PVRIG); experiment: SPR (Biacore); human CD112R as ligand, antibody as analyte; * limit of Biacore instrument
[10] = target: T2, Human CD112R expressed on cells; experiment: flow cytometry on human NK cells (endogenous CD112R)
Method: as §1
(§2) Table 7 summarizes EC50 values calculated based on the binding curves of selected humanized mAbs to cynomolgus CD8 T cells and human NK cells, both cells expressing endogenous CD112R of the relevant species. Assay was performed as in Table 6. An anti-CD112R mAb disclosed in WO2016134333 was used for comparison. All the humanized variants have a complete cross-reactivity between the human and cynomolgus targets.

[11] = target: Cynomolgus monkey (Macaca fascicularis) CD112R expressed on cells (cynomolgus monkey (Macaca fascicularis)); experiment: flow cytometry on cynomolgus CD8 T cells (endogenous CD112R)
[12] = target: T2, Human CD112R expressed on cells; experiment: flow cytometry EC-50 on human NK cells, against the reference Ab (member assigned from Table 7)
[13] = target: T2, Human CD112R expressed on cells; experiment: flow cytometry on human NK cells (endogenous CD112R); remark: listed apart in the source
[14] = target: Cynomolgus monkey (Macaca fascicularis) CD112R expressed on cells (cynomolgus monkey (Macaca fascicularis)); experiment: flow cytometry; EC-50 on cynomolgus CD8 T cells against EC-50 on human NK cells
[15] = target: T2, Human CD112R expressed on cells; experiment: flow cytometry competition on 293T cells overexpressing CD112R; antibody 40-0.018 nM; competitor hNectin-2-mIgG2a at 125 nM
Method: The humanized anti-CD112R antibodies are potent blockers of CD112R—Nectin-2 interactions. […] The antibodies were added in a range of concentrations of 40-0.018 nM in a series of three-fold dilutions. The amount of bound hNectin-2-mIgG2a was detected by anti-mouse antibodies fluorescently labeled with Dy-light 647 (115-606-071 Jackson immunoresearch) and analyzed by FACS.

Human CD112R (PVRIG) [16] = target: T1, Human CD112R (PVRIG); experiment: SPR (Biacore); purified full antibody; * limit of the Biacore instrument sensitivity
[17] = target: T2, Human CD112R expressed on cells; experiment: flow cytometry; max binding on human NK cells against max binding on cynomolgus CD8 T cells
Method: as §1, §2

Row | Binder | EC50 [1] | EC50 [3] | Ratio Cyno/Hu (EC50) [4] | Kd (Human CD112R (PVRIG) [6]) | Relative Kd (against VH0K0 N28T) (Human CD112R (PVRIG) [6]) | koff (Human CD112R (PVRIG) [6]) | kon (Human CD112R (PVRIG) [6]) | EC50 [8] | EC50 [10] | EC50 [11] | Max binding Cyno (MFI a.u - background) [11] | fold improved binding compared to the reference Ab [12] | Max binding Hu (MFI a.u - background) [13] | Ratio Cyno/Hu (EC-50) [14] | EC50 [15] | EC-90 [15] | Ratio Hu/Cyno (max binding) [17] | other results
1 | B1 | 0.97 nM | 0.55 nM | 1.75 | 0.145 nM | 1.16 | 3.05e-05 s⁻¹ | 210000 M⁻¹ s⁻¹ | 0.7 nM | – | – | – | – | – | – | – | – | – | Kd (Human CD112R (PVRIG) [2]): 0.167 nM; Relative Kd (against VH0Vk0) (Human CD112R (PVRIG) [2]): 1; koff (Human CD112R (PVRIG) [5]): 3.26e-07 s⁻¹; kon (Human CD112R (PVRIG) [5]): 340000 M⁻¹ s⁻¹; fold more potent in binding CD112R than the reference Ab (Human CD112R (PVRIG) [7]): 3 to 30 fold; Kd (Human CD112R (PVRIG) [9]): 0.00096 nM
2 | B2 | – | – | – | – | – | – | – | 1.24 nM | – | – | – | – | – | – | – | – | – | koff (Human CD112R (PVRIG) [5]): 2.96e-06 s⁻¹; kon (Human CD112R (PVRIG) [5]): 340000 M⁻¹ s⁻¹; fold more potent in binding CD112R than the reference Ab (Human CD112R (PVRIG) [7]): 3 to 30 fold; Kd (Human CD112R (PVRIG) [9]): 0.00871 nM
3 | B3 | 0.72 nM | 0.3 nM | 2.43 | – | – | – | – | – | 0.91 nM | 1.46 nM | 820 MFI a.u | > 2 fold | 982 MFI a.u | 1.61 | 0.29 nM | 10.7 nM | 1.2 | Kd (Human CD112R (PVRIG) [16]): 0.0167 nM; Relative Kd (against VH0K0 N28T) (Human CD112R (PVRIG) [16]): 0.13; koff (Human CD112R (PVRIG) [16]): 4.79e-06 s⁻¹; kon (Human CD112R (PVRIG) [16]): 287000 M⁻¹ s⁻¹
4 | B4 | 0.42 nM | 0.4 nM | 1.07 | 0.119 nM | 0.94 | 4.27e-05 s⁻¹ | 359000 M⁻¹ s⁻¹ | – | 0.86 nM | 1.45 nM | 914 MFI a.u | > 2 fold | 975 MFI a.u | 1.69 | – | – | 1.07 | –
5 | B5 | 0.5 nM | 0.3 nM | 1.67 | 0.121 nM | 0.96 | 4.36e-05 s⁻¹ | 361000 M⁻¹ s⁻¹ | – | 0.77 nM | 1.39 nM | 933 MFI a.u | > 2 fold | 988 MFI a.u | 1.81 | – | – | 1.06 | –
6 | B6 | 0.71 nM | 0.28 nM | 2.54 | 0.112 nM | 0.89 | 3.77e-05 s⁻¹ | 336000 M⁻¹ s⁻¹ | – | 1.06 nM | 1.29 nM | 839 MFI a.u | – | 1020 MFI a.u | 1.22 | 0.32 nM | 9.9 nM | 1.21 | –
7 | B7 | 0.6 nM | 0.31 nM | 1.93 | – | – | – | – | – | 1.11 nM | 1.27 nM | 833 MFI a.u | – | 1000 MFI a.u | 1.14 | 0.26 nM | 9.6 nM | 1.21 | Kd (Human CD112R (PVRIG) [16]): 0.0788 nM; Relative Kd (against VH0K0 N28T) (Human CD112R (PVRIG) [16]): 0.63; koff (Human CD112R (PVRIG) [16]): 2.42e-05 s⁻¹; kon (Human CD112R (PVRIG) [16]): 307000 M⁻¹ s⁻¹
8 | B8 | – | – | – | – | – | – | – | 1.29 nM | – | – | – | – | – | – | – | – | – | –

From patent publication US20240270840A1 (NECTIN THERAPEUTICS, published 2024)
